Tests used:
[1] = target: NCAM on cells (primary hippocampal neurones; NCAM-140 on transfected fibroblasts) (rat) (UniProt P13596); test: cell-based or functional assay
[2] = target: NCAM Ig2 domain, recombinant, produced in Pichia pastoris (rat) (UniProt P13596); test: NMR titration, 14 points, 15N-labelled domain-2 (1.0 mM) titrated with unlabelled domain-1, chemical shifts of 10 residues fitted
[3] = target: the molecule itself; test: gel filtration chromatography, self-association

Row | Molecule | binding result [3] | further results
1 | NCAM Ig2 domain, recombinant, produced in Pichia pastoris (from UniProt P13596 117-208) (ligand) |  | concentration of maximal neuritogenic effect, primary hippocampal neurones on fibronectin [1]: 0.54 µM
2 | NCAM Ig1 domain, recombinant, produced in Pichia pastoris (Ig1 PP) (from UniProt P13596 20-116) (receptor) |  | Kd [2]: 2500 µM
3 | NCAM (20-208) with three mutations in the domain-1 E30A, E35A, K37A (receptor, UniProt P13596 20-208, looked up, Species as for m28; also called first mutant) LQVDIVPSQGAISVGASAFFLCQVAGDAKDKDISWFSPNGEKLSPNQQRISVVWNDDDSSTLTIYNANIDDAGIYKCVVTAEDGTQSEATVNVKIFQKLMFKNAPTPQEFKEGEDAVIVCDVVSSLPPTIIWKHKGRDVILKKDVRFIVLSNNYLQIRGIKKTDEGTYRCEGRILARGEINFKDIQVIV | no binding | 
4 | NCAM (20-208) with three mutations in the domain-2 R192A, R196A, E198A (receptor, UniProt P13596 20-208, looked up, Species as for m28; also called second mutant; mutated double domain) LQVDIVPSQGEISVGESKFFLCQVAGDAKDKDISWFSPNGEKLSPNQQRISVVWNDDDSSTLTIYNANIDDAGIYKCVVTAEDGTQSEATVNVKIFQKLMFKNAPTPQEFKEGEDAVIVCDVVSSLPPTIIWKHKGRDVILKKDVRFIVLSNNYLQIRGIKKTDEGTYRCEGAILAAGAINFKDIQVIV | no binding | 
5 | NCAM (20-208) with three mutations in the domain-1 E30A, E35A, K37A and three mutations in the domain-2 R192A, R196A, E198A (receptor, UniProt P13596 20-208, looked up, Species as for m28; also called third mutant) LQVDIVPSQGAISVGASAFFLCQVAGDAKDKDISWFSPNGEKLSPNQQRISVVWNDDDSSTLTIYNANIDDAGIYKCVVTAEDGTQSEATVNVKIFQKLMFKNAPTPQEFKEGEDAVIVCDVVSSLPPTIIWKHKGRDVILKKDVRFIVLSNNYLQIRGIKKTDEGTYRCEGAILAAGAINFKDIQVIV | no binding | 

— patent US6887844 (dated 2005)
